{"source": "patent US20260209386A1", "about": "(MYTHIC THERAPEUTICS, published 2026)", "data": [{"target": "T1, Human PTK7 Protein, His Tag (Acro Biosystems) (human, UniProt Q13308 31-704)", "T1 construct": "Bought recombinant protein; also called CCK4; tyrosine-protein kinase-like 7; not shown: His tag", "T1 sequence": "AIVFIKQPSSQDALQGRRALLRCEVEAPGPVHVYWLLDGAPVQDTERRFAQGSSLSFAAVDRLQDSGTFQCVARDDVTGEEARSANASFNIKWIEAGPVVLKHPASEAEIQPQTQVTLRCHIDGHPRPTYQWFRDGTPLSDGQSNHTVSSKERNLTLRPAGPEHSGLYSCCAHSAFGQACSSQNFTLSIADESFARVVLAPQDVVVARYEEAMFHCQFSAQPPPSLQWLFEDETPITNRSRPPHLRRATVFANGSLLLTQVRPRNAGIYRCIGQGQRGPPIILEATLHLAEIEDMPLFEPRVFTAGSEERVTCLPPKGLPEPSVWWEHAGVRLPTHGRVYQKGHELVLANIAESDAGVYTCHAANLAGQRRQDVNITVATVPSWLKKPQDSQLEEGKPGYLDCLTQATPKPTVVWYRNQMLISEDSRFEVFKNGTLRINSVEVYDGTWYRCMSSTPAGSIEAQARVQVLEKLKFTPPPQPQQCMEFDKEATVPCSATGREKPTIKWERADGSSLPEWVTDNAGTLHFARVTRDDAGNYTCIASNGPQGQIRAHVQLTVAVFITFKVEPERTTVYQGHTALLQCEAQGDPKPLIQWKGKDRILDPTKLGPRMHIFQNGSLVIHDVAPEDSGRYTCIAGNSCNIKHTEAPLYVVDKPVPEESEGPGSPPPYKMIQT", "assay": "BLI, antibody on anti-human Fc sensor, 50 nM PTK7 at pH 7.4, dissociation at pH 7.4 or 5.4; 1 = pH dependent binding relative to parent", "values": [{"binder": "MYT11349 (antibody, V domains shown, MYT9797 HC variant; captured via anti-human Fc) VH: EVQLVESGGGLVQPGGSLRLSCTASGIDLSNYAVIWVRQAPGKGLEWVGHIYTYDTTYYANWAKGRFTISRDTSKNTVYLQMNSLRAEDTAVYFCARSFSDISDLIKLWGQGTLVTVSS VL: EIVMTQSPSTLSASVGDRVIITCQASQSLYNNKDLAWYQQKPGKAPKLLIYEASKLASGVPSRFSGSGSGAEFTLTISSLQPDDFATYYCLGEFSCGSGDCLAFGQGTKLTVL", "binding result": "binds"}, {"binder": "MYT11393 (antibody, V domains shown, MYT9797 LC variant; captured via anti-human Fc) VH: EVQLVESGGGLVQPGGSLRLSCTASGIDLSNYAVIWVRQAPGKGLEWVGIIYTYDTTYYANWAKGRFTISRDTSKNTVYLQMNSLRAEDTAVYFCARSFSDISDLIKLWGQGTLVTVSS VL: EIVMTQSPSTLSASVGDRVIITCQASQSLYNNKHLAWYQQKPGKAPKLLIYEASKLASGVPSRFSGSGSGAEFTLTISSLQPDDFATYYCLGEFSCGSGDCLAFGQGTKLTVL", "binding result": "binds"}, {"binder": "MYT11392 (antibody, V domains shown, MYT9797 LC variant; captured via anti-human Fc) VH: EVQLVESGGGLVQPGGSLRLSCTASGIDLSNYAVIWVRQAPGKGLEWVGIIYTYDTTYYANWAKGRFTISRDTSKNTVYLQMNSLRAEDTAVYFCARSFSDISDLIKLWGQGTLVTVSS VL: EIVMTQSPSTLSASVGDRVIITCQASQSLYNNHDLAWYQQKPGKAPKLLIYEASKLASGVPSRFSGSGSGAEFTLTISSLQPDDFATYYCLGEFSCGSGDCLAFGQGTKLTVL", "binding result": "binds"}, {"binder": "MYT11352 (antibody, V domains shown, MYT9797 HC variant; captured via anti-human Fc) VH: EVQLVESGGGLVQPGGSLRLSCTASGIDLSNYAVIWVRQAPGKGLEWVGIIYHYDTTYYANWAKGRFTISRDTSKNTVYLQMNSLRAEDTAVYFCARSFSDISDLIKLWGQGTLVTVSS VL: EIVMTQSPSTLSASVGDRVIITCQASQSLYNNKDLAWYQQKPGKAPKLLIYEASKLASGVPSRFSGSGSGAEFTLTISSLQPDDFATYYCLGEFSCGSGDCLAFGQGTKLTVL", "binding result": "binds"}, {"binder": "MYT11357 (antibody, V domains shown, MYT9797 HC variant; captured via anti-human Fc) VH: EVQLVESGGGLVQPGGSLRLSCTASGIDLSNYAVIWVRQAPGKGLEWVGIIYTYDTTHYANWAKGRFTISRDTSKNTVYLQMNSLRAEDTAVYFCARSFSDISDLIKLWGQGTLVTVSS VL: EIVMTQSPSTLSASVGDRVIITCQASQSLYNNKDLAWYQQKPGKAPKLLIYEASKLASGVPSRFSGSGSGAEFTLTISSLQPDDFATYYCLGEFSCGSGDCLAFGQGTKLTVL", "binding result": "binds"}, {"binder": "MYT11390 (antibody, V domains shown, MYT9797 LC variant; captured via anti-human Fc) VH: EVQLVESGGGLVQPGGSLRLSCTASGIDLSNYAVIWVRQAPGKGLEWVGIIYTYDTTYYANWAKGRFTISRDTSKNTVYLQMNSLRAEDTAVYFCARSFSDISDLIKLWGQGTLVTVSS VL: EIVMTQSPSTLSASVGDRVIITCQASQSLYHNKDLAWYQQKPGKAPKLLIYEASKLASGVPSRFSGSGSGAEFTLTISSLQPDDFATYYCLGEFSCGSGDCLAFGQGTKLTVL", "binding result": "binds"}, {"binder": "MYT11355 (antibody, V domains shown, MYT9797 HC variant; captured via anti-human Fc) VH: EVQLVESGGGLVQPGGSLRLSCTASGIDLSNYAVIWVRQAPGKGLEWVGIIYTYDHTYYANWAKGRFTISRDTSKNTVYLQMNSLRAEDTAVYFCARSFSDISDLIKLWGQGTLVTVSS VL: EIVMTQSPSTLSASVGDRVIITCQASQSLYNNKDLAWYQQKPGKAPKLLIYEASKLASGVPSRFSGSGSGAEFTLTISSLQPDDFATYYCLGEFSCGSGDCLAFGQGTKLTVL", "binding result": "binds"}, {"binder": "MYT11396 (antibody, V domains shown, MYT9797 LC variant; captured via anti-human Fc) VH: EVQLVESGGGLVQPGGSLRLSCTASGIDLSNYAVIWVRQAPGKGLEWVGIIYTYDTTYYANWAKGRFTISRDTSKNTVYLQMNSLRAEDTAVYFCARSFSDISDLIKLWGQGTLVTVSS VL: EIVMTQSPSTLSASVGDRVIITCQASQSLYNNKDLAWYQQKPGKAPKLLIYHASKLASGVPSRFSGSGSGAEFTLTISSLQPDDFATYYCLGEFSCGSGDCLAFGQGTKLTVL", "binding result": "binds"}, {"binder": "MYT11363 (antibody, V domains shown, MYT9797 HC variant; captured via anti-human Fc) VH: EVQLVESGGGLVQPGGSLRLSCTASGIDLSNYAVIWVRQAPGKGLEWVGIIYTYDTTYYANWAHGRFTISRDTSKNTVYLQMNSLRAEDTAVYFCARSFSDISDLIKLWGQGTLVTVSS VL: EIVMTQSPSTLSASVGDRVIITCQASQSLYNNKDLAWYQQKPGKAPKLLIYEASKLASGVPSRFSGSGSGAEFTLTISSLQPDDFATYYCLGEFSCGSGDCLAFGQGTKLTVL", "binding result": "binds"}, {"binder": "MYT11354 (antibody, V domains shown, MYT9797 HC variant; captured via anti-human Fc) VH: EVQLVESGGGLVQPGGSLRLSCTASGIDLSNYAVIWVRQAPGKGLEWVGIIYTYHTTYYANWAKGRFTISRDTSKNTVYLQMNSLRAEDTAVYFCARSFSDISDLIKLWGQGTLVTVSS VL: EIVMTQSPSTLSASVGDRVIITCQASQSLYNNKDLAWYQQKPGKAPKLLIYEASKLASGVPSRFSGSGSGAEFTLTISSLQPDDFATYYCLGEFSCGSGDCLAFGQGTKLTVL", "binding result": "binds"}, {"binder": "MYT11369 (antibody, V domains shown, MYT9797 HC variant; captured via anti-human Fc) VH: EVQLVESGGGLVQPGGSLRLSCTASGIDLSNYAVIWVRQAPGKGLEWVGIIYTYDTTYYANWAKGRFTISRDTSKNTVYLQMNSLRAEDTAVYFCARSFHDISDLIKLWGQGTLVTVSS VL: EIVMTQSPSTLSASVGDRVIITCQASQSLYNNKDLAWYQQKPGKAPKLLIYEASKLASGVPSRFSGSGSGAEFTLTISSLQPDDFATYYCLGEFSCGSGDCLAFGQGTKLTVL", "binding result": "binds"}, {"binder": "MYT11398 (antibody, V domains shown, MYT9797 LC variant; captured via anti-human Fc) VH: EVQLVESGGGLVQPGGSLRLSCTASGIDLSNYAVIWVRQAPGKGLEWVGIIYTYDTTYYANWAKGRFTISRDTSKNTVYLQMNSLRAEDTAVYFCARSFSDISDLIKLWGQGTLVTVSS VL: EIVMTQSPSTLSASVGDRVIITCQASQSLYNNKDLAWYQQKPGKAPKLLIYEAHKLASGVPSRFSGSGSGAEFTLTISSLQPDDFATYYCLGEFSCGSGDCLAFGQGTKLTVL", "binding result": "binds"}, {"binder": "MYT11394 (antibody, V domains shown, MYT9797 LC variant; captured via anti-human Fc) VH: EVQLVESGGGLVQPGGSLRLSCTASGIDLSNYAVIWVRQAPGKGLEWVGIIYTYDTTYYANWAKGRFTISRDTSKNTVYLQMNSLRAEDTAVYFCARSFSDISDLIKLWGQGTLVTVSS VL: EIVMTQSPSTLSASVGDRVIITCQASQSLYNNKDHAWYQQKPGKAPKLLIYEASKLASGVPSRFSGSGSGAEFTLTISSLQPDDFATYYCLGEFSCGSGDCLAFGQGTKLTVL", "binding result": "binds"}, {"binder": "MYT11376 (antibody, V domains shown, MYT9797 HC variant; captured via anti-human Fc) VH: EVQLVESGGGLVQPGGSLRLSCTASGIDLSNYAVIWVRQAPGKGLEWVGIIYTYDTTYYANWAKGRFTISRDTSKNTVYLQMNSLRAEDTAVYFCARSFSDISDLIHLWGQGTLVTVSS VL: EIVMTQSPSTLSASVGDRVIITCQASQSLYNNKDLAWYQQKPGKAPKLLIYEASKLASGVPSRFSGSGSGAEFTLTISSLQPDDFATYYCLGEFSCGSGDCLAFGQGTKLTVL", "binding result": "binds"}, {"binder": "MYT11380 (antibody, V domains shown, MYT9797 HC alanine variant; captured via anti-human Fc) VH: EVQLVESGGGLVQPGGSLRLSCTASGIDLSNYAVIWVRQAPGKGLEWVGIIYTYATTYYANWAKGRFTISRDTSKNTVYLQMNSLRAEDTAVYFCARSFSDISDLIKLWGQGTLVTVSS VL: EIVMTQSPSTLSASVGDRVIITCQASQSLYNNKDLAWYQQKPGKAPKLLIYEASKLASGVPSRFSGSGSGAEFTLTISSLQPDDFATYYCLGEFSCGSGDCLAFGQGTKLTVL", "binding result": "binds"}, {"binder": "MYT11356 (antibody, V domains shown, MYT9797 HC variant; captured via anti-human Fc) VH: EVQLVESGGGLVQPGGSLRLSCTASGIDLSNYAVIWVRQAPGKGLEWVGIIYTYDTHYYANWAKGRFTISRDTSKNTVYLQMNSLRAEDTAVYFCARSFSDISDLIKLWGQGTLVTVSS VL: EIVMTQSPSTLSASVGDRVIITCQASQSLYNNKDLAWYQQKPGKAPKLLIYEASKLASGVPSRFSGSGSGAEFTLTISSLQPDDFATYYCLGEFSCGSGDCLAFGQGTKLTVL", "binding result": "binds"}]}, {"target": "T2, Human PTK7/CCK4 Protein, His Tag, Acro Biosystems PT7-H52H3 (human, UniProt Q13308 31-704)", "T2 construct": "bought protein; also called Human PTK7 Protein, His Tag, Acro Biosystems; not shown: His tag", "T2 sequence": "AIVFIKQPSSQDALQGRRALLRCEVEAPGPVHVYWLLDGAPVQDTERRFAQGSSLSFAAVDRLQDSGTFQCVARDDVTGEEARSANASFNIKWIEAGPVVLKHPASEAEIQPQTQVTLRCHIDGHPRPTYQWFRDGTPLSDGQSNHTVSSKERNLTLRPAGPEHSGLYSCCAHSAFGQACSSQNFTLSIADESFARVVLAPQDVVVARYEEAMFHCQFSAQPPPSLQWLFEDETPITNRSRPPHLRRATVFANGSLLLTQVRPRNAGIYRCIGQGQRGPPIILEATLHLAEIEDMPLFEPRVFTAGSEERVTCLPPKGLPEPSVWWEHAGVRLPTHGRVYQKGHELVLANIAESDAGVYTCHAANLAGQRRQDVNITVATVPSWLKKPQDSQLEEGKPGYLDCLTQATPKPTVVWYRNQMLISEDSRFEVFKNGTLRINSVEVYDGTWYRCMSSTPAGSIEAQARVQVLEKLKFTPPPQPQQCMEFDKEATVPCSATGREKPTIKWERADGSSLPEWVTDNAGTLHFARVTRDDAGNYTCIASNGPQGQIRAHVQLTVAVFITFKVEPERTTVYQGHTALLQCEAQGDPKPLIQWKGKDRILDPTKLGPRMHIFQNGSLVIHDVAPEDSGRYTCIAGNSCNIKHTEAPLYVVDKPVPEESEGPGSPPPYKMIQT", "assay": "BLI, antibody on anti-human Fc sensor", "values": [{"binder": "MYT6268 (antibody, V domains shown, IgG) VH: QVQLVESGGGVVQPGRSLRLSCAASGFTFSSYGMHWVRQAPGKGLEWVAVIWDDGSNKYYVDSVKGRFTISRDNSKNTLYLQMNSLRAEDTAVYYCARDDYYGSGSFNSYYGHDVWGQGTTVTVSS VL: EIVLTQSPATLSLSPGERATLSCRASQSVSIYLAWYQQKPGQAPRLLIYDASNRATGIPARFSGSGSGTDFTLTISSLEPEDFAVYYCQQRSNWPPFTFGPGTKVDIK", "binding result": "no binding (tested: 50 nM PTK7)"}, {"binder": "MYT6269 (antibody, V domains shown, IgG) VH: QVQLVESGGGVVQPGRSLRLSCAASGFTFSSYGMHWVRQAPGKGLEWVAVIWDDGSNKYYVDSVKGRFTISRDNSKNTLYLQMNSLRAEDTAVYYCARDDYYGSGSFNSYYGTHVWGQGTTVTVSS VL: EIVLTQSPATLSLSPGERATLSCRASQSVSIYLAWYQQKPGQAPRLLIYDASNRATGIPARFSGSGSGTDFTLTISSLEPEDFAVYYCQQRSNWPPFTFGPGTKVDIK", "binding result": "no binding (tested: 50 nM PTK7)"}]}]}
